Laboratory results published in US20200181597A1, “Composition and Application of Arginine-depleting Agents for Cancer, Obesity, Metabolic Disorders, and Related Complications and Comorbidities” (THE HONG KONG POLYTECHNIC UNIVERSITY, priority 2018, published 2020).

Experiment: Prevention of HFD-induced obesity, female mice
Format: in vivo, C57BL/6J female mice
Details: 300U weekly
Source text: FIG. 21 illustrates that concurrent treatment with 300U N-ABD094-rhArg (SEQ ID, NO: 50) [HFD(rhArg) group] once a week could effectively prevent HFD-induced obesity in C57BL/6J female mice. (A) Bodyweight of mice fed a HFD from 8 week old for 12 weeks, and currently treated with N-ABD094-rhArg or vehicle. Vehicle-treated female mice fed a LFD served as the lean control [LFD(vehicle) group]. (B) Weight of fat pad at main visceral (perigonadal, perirenal and mesenteric) and subcutaneous (inguinal) depots. *P<0.05, one-way ANOVA followed by Fisher's LSD. Data are expressed as mean±SEM, n=5 for each group.
FIG. 22 illustrates that concurrent treatment with 300U N-ABD094-rhArg (SEQ ID NO: 50) [HFD(rhArg) group] once a week could effectively prevent HFD-induced insulin resistance and glucose intolerance in C57BL/6J female mice. (A) Insulin tolerance test (ITT) conducted at 7 week after feeding a HFD. (B) Glucose tolerance test (GTT) conducted at 11 week after feeding a HFD. ITT and GTT results are expressed as area under the curve (AUC). *P<0.05, one-way ANOVA followed by Fisher's LSD. Data are expressed as mean±SEM, n=5 for each group.
After confirming the anti-obesity effect of N-ABD094-rhArg (SEQ ID NO: 50) on male mice, the effect of N-ABD094-rhArg (SEQ ID NO: 50) on female mice (n=5 in each group) was studied to determine if there was any sex difference.

B1: N-ABD094-rhArg: albumin binding domain ABD094 fused N-terminally to recombinant human arginase I, SEQ ID NO: 50 (protein)
chain: MHHHHHHDEAVDANSLAEAKEAANAELDSYGVSDFYKRLIDKAKTVEGVEALKDAILAALPSGSNNNNNNGSGGMSAKSRTIGIIGAPFSKGQPRGGVEEGPTVLRKAGLLEKLKEQECDVKDYGDLPFADIPNDSPFQIVKNPRSVGKASEQLAGKVAEVKKNGRISLVLGGDHSLAIGSISGHARVHPDLGVIWVDAHTDINTPLTTTSGNLHGQPVSFLLKELKGKIPDVPGFSWVTPCISAKDIVYIGLRDVDPGEHYILKTLGIKYFSMTEVDRLGIGKVMEETLSYLLGRKKRPIHLSFDVDGLDPSFTPATGTPVVGGLTYREGLYITEEIYKTGLLSGLDIMEVNPSLGKTPEEVTRTVNTAVAITLACFGLAREGNHKPIDYLNPPK
modifications: Mn2+; N-ABD094-rhArg, Synthesized in the Lab
12 weeks
  protection from weight gain and excessive accumulation of WAT: similarly effective
ITT week 7, GTT week 11
  insulin sensitivity (ITT) and glucose tolerance (GTT): improve
